The supplement of paper PMC10266784

B1: library; numbered along this chain (parent)
chain: MAAAAAAAAEQQSSNGPVKKSMREKAVERRSVNKEHNSNFKAGYIPIDEDRLHKTGLRGRKGNLAICVIILLFILAVINLIITLVIWAVIRIGPNGCDSMEFHESGLLRFKQVSDMGVIHPLYKSTVGGRRNENLVITGNNQPIVFQQGTTKLSVENNKTSITSDIGMQFFDPRTQNILFSTDYETHEFHLPSGVKSLNVQKASTERITSNATSDLNIKVDGRAIVRGNEGVFIMGKTIEFHMGGNMELKAENSIILNGSVMVSTTRLPSSSSGDQLGSGDWVRYKLCMCADGTLFKVQVTSQNMGCQISDNPCGNTH

Variants of: B1
Assay: SGCB cell-surface expression functional score (HA stain, bin4 vs bin1, normalised to synonymous) (log10 ratio); higher = more cell-surface SGCB (functional)
In short: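 The functional score is a log ratio of variant frequency in the highest versus the lowest intensity bin, expressed as a median over codons and duplicate transductions. Codon-saturation libraries of HA-tagged, YFP-fused human beta-sarcoglycan were transduced by lentivirus at MOI <0.1 into HEK293 cells stably expressing alpha-, gamma- and delta-sarcoglycan, and the cells were stained on ice with Alexa Fluor 647 anti-HA, fixed and sorted into four 5% intensity bins before amplicon sequencing. Synonymous variants were scaled to mean 0, SD 0.5 within each section.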

SGCB cell-surface expression functional score (log10): each site, then its substitutions
N157: P 0.01, C 0.02, D -0.02, W 0.34, L 0.19, R 0.01, M 0.06, I -0.06, G 0.52, V 0.48, K -0.19, Q 0.38, S -0.08, F -0.21, E -0.18, Y 0.04, H 0.06, T -0.05, A 0.08
S154: G -0.24, K 0.55, M 0.54, Y -0.16, I 0, E -0.33, C 0.11, W -0.21, T -0.08, P -1.03, N -0.3, D 0.2, Q -0.7, R 0.01, H -0.24, L -0.22, F -0.49, A 0.26, V 0.16
N158: Y -0.05, G -0.06, S 0.15, D 0.02, K -0.26, I -0.21, R -0.6, C 0, A -0.1, F -0.06, T 0.18, P -0.76, Q 0.06, M -0.12, H -0.2, E -0.02, L -0.11, W -0.42, V -0.44
L153: W -1.15, Y -1.24, V -0.65, T -0.99
K159: Q -0.09, G 0.43, T -0.28, V -0.09, F -0.25, R -0.48, L 0.31, N -0.03, S -0.32, C -0.02, P -1.13, M -0.28, H -0.05, W -0.05, E -0.7, I 0, A -0.02, Y -0.79, D -1.02
E156: N -0.23, C 0.01, Y -0.38, S -0.22, M -0.14, V -0.3, D -0.04, P -0.84, L -0.43, W -0.4, R -0.38, G -0.23, H -0.39, K -0.6, I -0.63, Q 0.19, A -0.03, T -0.18, F -0.1
T160: E -1.3, A -0.29, D -1.29, K -2.03, G -1.29, S -0.5, H -0.01, F -0.15, C -0.14, L 0.17, Q -1.26, I 0.64, W -0.95, M -1.02, P -1.28, Y -1.13, V 0.03, N -0.8, R -1.29
S161: E 0.42, R 0.02, A 0.29, G 0.01, Q 0.14, W -0.98, Y -0.18, N -0.84, F -0.36, L 0.12, V -0.12, I -0.06, K -0.33, T 0.3, D -0.8, P -1.15, M -0.34, H -0.26, C -0.11
I162: M 0.23, C -1.23, H -1.02, F -0.81, L -0.6, E -0.89, A -0.52, D -1.31, N -0.83, G -1.34, K -1.11
V155: A -0.56, L 0.18, W -1.19, H -1.51, T -1.02, R -1.45, P -1.4, C -0.76, F -0.64, Q -1.48, G -1.18, Y -1.9, S -1.06, K -1.53, I 0.29, E -0.74, D -0.85, N -1.38, M 0.02
